The values that follow come from US20160319321.

Series [1] deals with T1, Lys(Dnp)-DLGDR-EGTFT-Lys(Abz)amide.
T1 chain: KDLGDREGTFTK

Series [2] concerns the target T2, Lys(Dnp)-DLGDR-HSQGT-Lys(Abz)amide.
T2 chain: KDLGDRHSQGTK

In series [3] the target is T3, Lys(Dnp)-DQGDR-EGTFT-Lys(Abz)amide.
T3 chain: KDQGDREGTFTK

Series [4] deals with T4, Lys(Dnp)-DYGDR-EGTFT-Lys(Abz)amide.
T4 chain: KDYGDREGTFTK

For series [5], the target named is T5, Lys(Dnp)-EHGDR-EGTFT-Lys(Abz)amide.
T5 chain: KEHGDREGTFTK

Series [6] addresses T6, Lys(Dnp)-IDEGDR-HAEGT-Lys(Abz)amide.
T6 chain: KIDEGDRHAEGTK

Series [7] deals with T7, Lys(Dnp)-QEGDR-EGTFT-Lys(Abz)amide.
T7 chain: KQEGDREGTFTK

Series [8] has as its target T8, Lys(Dnp)-TEGDR-HAEGT-Lys(Abz)amide.
T8 chain: KTEGDRHAEGTK

The target in series [9] is T9, Lys(Dnp)-VEGDR-HAEGT-Lys(Abz)amide.
T9 chain: KVEGDRHAEGTK

B1: bovine Enterokinase light chain variant (C112A, L134K, I135K) (protein)
chain: IVGGSDSREGAWPWVVALYFDDQQVCGASLVSRDWLVSAAHCVYGRNMEPSKWKAVLGLHMASNLTSPQIETRLIDQIVINPHYNKRRKNNDIAMMHLEMKVNYTDYIQPIALPEENQVFPPGRICSIAGWGAKKYQGSTADVLQEADVPLLSNEKCQQQMPEYNITENMVCAGYEAGGVDSCQGDSGGPLMCQENNRWLLAGVTSFGYQCALPNRPGVYARVPRFTEWIQSFLH
As for B1, the Activity (%) was 438% in [1]; 268% in series [2]; 412% in series [3]; 373% in [4]; 339% in series [5]; 283% in [6]. Moreover, the Activity (%) in series [7] stood at 411%; in series [8], 393%; in series [9] it was 388%.
